Experimental data reported in patent publication US20210063414A1, “METHODS FOR PREVENTING AND/OR TREATING BONE LOSS CONDITIONS BY MODULATING IRISIN” (Dana-Farber Cancer Institute, Inc., priority 2018, published 2021).

Biological target: T1, MLO-Y4 cell surface proteins (Mus musculus, UniProt O88492)
T1 construct: endogenous in cells; host or cells: MLO-Y4
T1 sequence (O88492 1-1403): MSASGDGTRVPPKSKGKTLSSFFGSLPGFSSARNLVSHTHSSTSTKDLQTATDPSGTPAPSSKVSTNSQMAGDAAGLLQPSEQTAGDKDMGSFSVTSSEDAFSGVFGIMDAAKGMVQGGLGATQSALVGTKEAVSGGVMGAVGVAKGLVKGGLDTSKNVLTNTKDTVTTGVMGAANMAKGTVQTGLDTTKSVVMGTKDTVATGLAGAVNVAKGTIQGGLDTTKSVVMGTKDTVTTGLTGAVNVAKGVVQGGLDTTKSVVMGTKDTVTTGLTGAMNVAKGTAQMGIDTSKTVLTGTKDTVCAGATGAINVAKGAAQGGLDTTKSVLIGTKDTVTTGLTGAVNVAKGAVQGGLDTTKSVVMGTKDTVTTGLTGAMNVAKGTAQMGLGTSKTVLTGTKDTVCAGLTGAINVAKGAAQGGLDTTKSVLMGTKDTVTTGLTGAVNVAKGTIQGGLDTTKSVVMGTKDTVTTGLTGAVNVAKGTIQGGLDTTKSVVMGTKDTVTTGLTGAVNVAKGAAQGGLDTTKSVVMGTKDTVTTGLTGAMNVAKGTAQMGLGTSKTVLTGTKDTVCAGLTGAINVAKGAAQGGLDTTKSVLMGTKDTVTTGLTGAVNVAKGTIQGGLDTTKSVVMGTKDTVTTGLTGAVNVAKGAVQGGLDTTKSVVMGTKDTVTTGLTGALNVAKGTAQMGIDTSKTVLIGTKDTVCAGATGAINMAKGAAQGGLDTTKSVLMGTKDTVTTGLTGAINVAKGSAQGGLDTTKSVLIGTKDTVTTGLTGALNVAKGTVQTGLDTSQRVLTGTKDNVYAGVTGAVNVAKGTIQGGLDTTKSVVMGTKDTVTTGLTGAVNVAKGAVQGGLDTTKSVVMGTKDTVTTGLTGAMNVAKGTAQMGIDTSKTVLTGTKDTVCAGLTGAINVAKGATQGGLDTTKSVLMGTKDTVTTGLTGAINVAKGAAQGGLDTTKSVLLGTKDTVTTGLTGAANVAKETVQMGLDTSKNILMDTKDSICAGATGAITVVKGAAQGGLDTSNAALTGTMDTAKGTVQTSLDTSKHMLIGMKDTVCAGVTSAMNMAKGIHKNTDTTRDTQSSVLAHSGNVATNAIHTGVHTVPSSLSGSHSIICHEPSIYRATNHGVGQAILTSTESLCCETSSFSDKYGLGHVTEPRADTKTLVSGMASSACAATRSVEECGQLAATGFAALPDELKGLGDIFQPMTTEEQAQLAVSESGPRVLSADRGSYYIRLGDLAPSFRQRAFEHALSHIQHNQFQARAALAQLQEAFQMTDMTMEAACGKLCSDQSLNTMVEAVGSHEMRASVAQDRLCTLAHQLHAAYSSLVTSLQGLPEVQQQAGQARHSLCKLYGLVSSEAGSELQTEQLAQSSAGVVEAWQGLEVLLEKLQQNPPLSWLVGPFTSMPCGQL
Experiment: Crosslinking/co-immunoprecipitation/mass spectrometry (TMT quantitative proteomics) to identify irisin receptors
Assay type: binding
Settings: co-precipitated protein Plin4 (PLIN4_MOUSE)
Outline: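 Mouse MLO-Y4 cells were switched to serum-free FreeStyle medium for 4 h, chilled, then exposed to 10 nM His-tagged irisin (or adipsin as control) for 20 min. Cells were crosslinked with 1.5 mM DTSSP (30 min, ice), and bound proteins were pulled down on Ni-NTA and eluted with 250 mM imidazole. Eluates were separated by SDS-PAGE, trypsin-digested in gel, TMT 6-plex labelled and quantified by MS3-based LC-MS/MS on an Orbitrap Fusion Lumos.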

TMT signal-to-noise ratio: 111.989
Substance: adipsin
